Target: T1, purified mouse VDAC protein (mouse, UniProt Q3U6K8 2-283)
T1 construct: Used as a 100 ng/ml solution over dot-blotted ligands; also called voltage-dependent anion channel
Test: dot blot on nitrocellulose; bound VDAC detected with anti-VDAC antibody and ECL

binding result: no binding
B1: human microplasmin (enzyme, UniProt P00747 550-810, looked up)
chain: KLYDYCDVPQCAAPSFDCGKPQVEPKKCPGRVVGGCVAHPHSWPWQVSLRTRFGMHFCGGTLISPEWVLTAAHCLEKSPRPSSYKVILGAHQEVNLEPHVQEIEVSRLFLEPTRKDIALLKLSSPAVITDKVIPACLPSPNYVVADRTECFITGWGETQGTFGAGLLKEAQLPVIENKVCNRYEFLNGRVQSTELCAGHLAGGTDSCQGDSGGPLVCFEKDKYILQGVTSWGLGCARPNKPGVYVRVSRFVTWIEGVMRNN
notes: 50 ng dot blotted onto a nitrocellulose membrane; also called microplasmin having no Kringle domain

Source: patent EP1615032A1 (Kido, Hiroshi, dated 2006)
